Laboratory results taken from patent US20200255516A1 (JIANGSU HENGRUI MEDICINE, published 2020).

Legend:
[1] = biological target: T1, TIGIT fusion protein with Fc or mFc tag (human, UniProt Q495A1 22-141); test: HTRF blocking assay: TIGIT-Fc or TIGIT-mFc with biotinylated CD155 as the blocked ligand, ratio 665/620
T1 construct: extracellular domain; also called TIGIT-Fc; TIGIT-mFc
T1 sequence (looked up): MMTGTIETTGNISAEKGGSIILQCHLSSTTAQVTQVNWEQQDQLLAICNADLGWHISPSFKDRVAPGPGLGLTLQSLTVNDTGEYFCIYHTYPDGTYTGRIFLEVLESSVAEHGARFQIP

[2] = biological target: T1, TIGIT fusion protein with Fc or mFc tag; test: ELISA: human TIGIT-Fc or TIGIT-mFc captured by coated anti-Fc antibody, HRP secondary antibody, OD450
[3] = biological target: T2, Full-length human TIGIT on CHO cells overexpressing TIGIT (human, UniProt Q495A1 22-244); test: FACS blocking assay on TIGIT-CHO cells; competitor CF633-labeled CD155-Fc at 2 ug/ml
T2 construct: also called TIGIT-CHO cells; CHO cells overexpressing human TIGIT
T2 sequence: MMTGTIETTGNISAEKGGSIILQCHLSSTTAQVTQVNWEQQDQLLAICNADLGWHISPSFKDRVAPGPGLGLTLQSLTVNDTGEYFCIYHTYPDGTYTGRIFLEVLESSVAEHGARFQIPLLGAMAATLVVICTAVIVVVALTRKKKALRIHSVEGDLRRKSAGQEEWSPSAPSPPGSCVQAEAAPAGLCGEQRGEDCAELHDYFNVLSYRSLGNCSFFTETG

[4] = biological target: T2, Full-length human TIGIT on CHO cells …; test: cell ELISA on fixed CHO cells overexpressing human TIGIT
[5] = biological target: T1, TIGIT fusion protein with Fc or mFc tag; test: FACS blocking assay: TIGIT-mFc pre-incubated with the antibody, added to CHO cells overexpressing CD112 (blocked ligand), PE anti-mouse IgG, MFI
[6] = biological target: T3, human TIGIT on SEB-activated human PBMC (human, UniProt Q495A1); test: flow cytometry on SEB-activated human PBMC, PE anti-human IgG, MFI
T3 construct: native, on the cell surface
T3 sequence (receptor chain, looked up): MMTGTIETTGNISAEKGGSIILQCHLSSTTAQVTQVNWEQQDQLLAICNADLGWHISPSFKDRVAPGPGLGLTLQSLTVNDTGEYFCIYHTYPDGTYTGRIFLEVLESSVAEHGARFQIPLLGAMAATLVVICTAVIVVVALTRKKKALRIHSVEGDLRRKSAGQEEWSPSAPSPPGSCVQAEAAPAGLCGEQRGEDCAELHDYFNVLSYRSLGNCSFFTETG

[7] = biological target: T4, cynoTIGIT-mFc (fusion protein of cynoTIGIT extracellular domain and mouse IgG2a Fc fragment) (cynomolgus); test: SPR (Biacore T200), antibody held by Fc affinity capture, cynoTIGIT-mFc in mobile phase, 1:1 Langmuir fit
T4 construct: also called monkey TIGIT; cynomolgus TIGIT-mFc fusion protein

[8] = biological target: T1, TIGIT fusion protein with Fc or mFc tag; test: HTRF blocking assay: TIGIT-Fc or TIGIT-mFc with biotinylated CD155 as the blocked ligand, ratio 665/620; remark: listed apart in the source
[9] = biological target: T1, TIGIT fusion protein with Fc or mFc tag; test: blocking cell ELISA: TIGIT-hFc or TIGIT-mFc (0.2 ug/ml) pre-mixed with the antibody, added to fixed CHO cells overexpressing CD155 (blocked ligand), OD450
[10] = biological target: T5, human TIGIT (Sinobiological Co., Ltd., Cat. 10917-H08-H) (human, UniProt Q495A1 22-141); test: SPR (Biacore T200), antibody captured via Protein A, huTIGIT in mobile phase, 1:1 Langmuir fit
T5 construct: also called huTIGIT; TIGIT-His
T5 sequence (looked up): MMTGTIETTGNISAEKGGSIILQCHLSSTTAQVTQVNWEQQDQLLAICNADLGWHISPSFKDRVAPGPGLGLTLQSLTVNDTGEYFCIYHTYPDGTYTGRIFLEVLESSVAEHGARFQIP

[11] = biological target: T5, human TIGIT (Sinobiological Co., Ltd., …); test: SPR (Biacore), captured antibody, TIGIT-His as analyte
[12] = biological target: T4, cynoTIGIT-mFc (fusion protein of …); test: ELISA: cynomolgus TIGIT-Fc or TIGIT-mFc captured by coated anti-Fc antibody, HRP secondary antibody, OD450

T4 sequence (chain, as listed by the source limits assumed): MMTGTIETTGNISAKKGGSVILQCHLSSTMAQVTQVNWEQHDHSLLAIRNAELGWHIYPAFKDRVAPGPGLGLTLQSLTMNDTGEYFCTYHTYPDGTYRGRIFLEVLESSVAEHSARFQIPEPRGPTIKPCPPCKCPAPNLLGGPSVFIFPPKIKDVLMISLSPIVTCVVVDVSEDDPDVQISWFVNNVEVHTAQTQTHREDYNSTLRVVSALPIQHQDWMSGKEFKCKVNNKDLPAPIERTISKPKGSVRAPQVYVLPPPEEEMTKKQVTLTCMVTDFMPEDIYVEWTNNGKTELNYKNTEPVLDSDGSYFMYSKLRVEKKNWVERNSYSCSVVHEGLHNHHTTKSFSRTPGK

B1: h1708-05 (antibody, human IgG4 S228P, kappa, V domains shown)
VH: EVQLVQSGAEVKKPGASVKVSCKASGYTFTNYWMHWVRQAPGQGLEWMGRIDPDSTGSKYNEKFKTRVTMTVDTSTSTVYMELSSLRSEDTAVYYCAREGAYGYYFDYWGQGTLVTVSS
VL: DIQMTQSPSSLSASVGDRVTITCRASENIYSYLAWYQQKPGKSPKLLIYNARTLAEGVPSRFSGSGSGTDFTLTISSLQPEDFATYYCQYHSGSPLPFGGGTKVEIKR
notes: also called humanized TIGIT antibody h1708-05
IC50 (read off the curve) [1]: ~1 nM

B2: h1708-06 (antibody, human IgG4 S228P, kappa, V domains shown)
VH: EVQLVQSGAEVKKPGASVKVSCKASGYTFTNYWMHWVRQAPGQGLEWIGRIDPDSTGSKYNEKFKTRVTMTVDTSTSTAYMELSSLRSEDTAVYYCAREGAYGYYFDYWGQGTLVTVSS
VL: DIQMTQSPSSLSASVGDRVTITCRASENIYSYLAWYQQKPGKSPKLLIYNARTLAEGVPSRFSGSGSGTDFTLTISSLQPEDFATYYCQYHSGSPLPFGGGTKVEIKR
notes: also called humanized TIGIT antibody h1708-06
IC50 (read off the curve) [1]: ~1 nM

B3: h1708-01 (antibody, human IgG4 S228P, kappa, V domains shown)
VH: EVQLVQSGAEVKKPGASVKVSCKASGYTFTNYWMHWVRQAPGQGLEWMGRIDPDSTGSKYNEKFKTRVTMTRDTSTSTVYMELSSLRSEDTAVYYCAREGAYGYYFDYWGQGTLVTVSS
VL: DIQMTQSPSSLSASVGDRVTITCRASENIYSYLAWYQQKPGKAPKLLIYNARTLAEGVPSRFSGSGSGTDFTLTISSLQPEDFATYYCQYHSGSPLPFGGGTKVEIKR
notes: also called humanized TIGIT antibody h1708-01
IC50 (read off the curve) [1]: ~1 nM

B4: h1708-04 (antibody, human IgG4 S228P, kappa, V domains shown)
VH: EVQLVQSGAEVKKPGASVKVSCKASGYTFTNYWMHWVRQAPGQGLEWMGRIDPDSTGSKYNEKFKTRVTMTRDTSTSTVYMELSSLRSEDTAVYYCAREGAYGYYFDYWGQGTLVTVSS
VL: DIQMTQSPSSLSASVGDRVTITCRASENIYSYLAWYQQKPGKSPKLLIYNARTLAEGVPSRFSGSGSGTDFTLTISSLQPEDFATYYCQYHSGSPLPFGGGTKVEIKR
notes: also called humanized TIGIT antibody h1708-04
EC50 (read off the curve) [2]: ~0.1 nM | IC50 [3]: 0.499 nM | IC50 (read off the curve) [1]: ~1 nM | EC50 [4]: 0.0848 nM | IC50 (read off the curve) [5]: ~5 nM | EC50 (read off the curve) [6]: ~0.3 nM | Kd [7]: 0.285 nM | koff [7]: 0.000352 s⁻¹ | kon [7]: 1.24e+06 M⁻¹ s⁻¹ | IC50 (read off the curve) [8]: ~2 nM | IC50 (read off the curve) [9]: ~1 nM | Kd [10]: 0.104 nM | koff [10]: 0.000183 s⁻¹ | kon [10]: 1.75e+06 M⁻¹ s⁻¹

B5: h1708-03 (antibody, human IgG4 S228P, kappa, V domains shown)
VH: EVQLVQSGAEVKKPGASVKVSCKASGYTFTNYWMHWVRQAPGQGLEWIGRIDPDSTGSKYNEKFKTRVTMTVDTSTSTAYMELSSLRSEDTAVYYCAREGAYGYYFDYWGQGTLVTVSS
VL: DIQMTQSPSSLSASVGDRVTITCRASENIYSYLAWYQQKPGKAPKLLIYNARTLAEGVPSRFSGSGSGTDFTLTISSLQPEDFATYYCQYHSGSPLPFGGGTKVEIKR
notes: also called humanized TIGIT antibody h1708-03
IC50 (read off the curve) [1]: ~1 nM

B6: h1708-02 (antibody, human IgG4 S228P, kappa, V domains shown)
VH: EVQLVQSGAEVKKPGASVKVSCKASGYTFTNYWMHWVRQAPGQGLEWMGRIDPDSTGSKYNEKFKTRVTMTVDTSTSTVYMELSSLRSEDTAVYYCAREGAYGYYFDYWGQGTLVTVSS
VL: DIQMTQSPSSLSASVGDRVTITCRASENIYSYLAWYQQKPGKAPKLLIYNARTLAEGVPSRFSGSGSGTDFTLTISSLQPEDFATYYCQYHSGSPLPFGGGTKVEIKR
notes: also called humanized TIGIT antibody h1708-02
IC50 (read off the curve) [1]: ~1 nM

B7: h1711-01 (antibody, V domains shown)
VH: EVQLVQSGAEVKKPGSSVKVSCKASGGTFSNYWIGWVRQAPGQGLEWMGDIYPGGAYTNYNEKFKDRVTITADKSTSTAYMELSSLRSEDTAVYYCARGDYYDSSGRAMDYWGQGTLVTVSS
VL: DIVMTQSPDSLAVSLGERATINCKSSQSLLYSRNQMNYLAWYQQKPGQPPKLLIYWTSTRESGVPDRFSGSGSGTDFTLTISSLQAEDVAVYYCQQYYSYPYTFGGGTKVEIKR
Kd [11]: 1.49 nM | koff [11]: 0.00209 s⁻¹ | kon [11]: 1.4e+06 M⁻¹ s⁻¹

B8: h1711-02 (antibody, human IgG4 S228P, kappa, V domains shown)
VH: EVQLVQSGAEVKKPGSSVKVSCKASGGTFSNYWIGWVRQAPGQGLEWIGDIYPGGAYTNYNEKFKDRVTITADKSTSTAYMELSSLRSEDTAVYYCARGDYYDSSGRAMDYWGQGTLVTVSS
VL: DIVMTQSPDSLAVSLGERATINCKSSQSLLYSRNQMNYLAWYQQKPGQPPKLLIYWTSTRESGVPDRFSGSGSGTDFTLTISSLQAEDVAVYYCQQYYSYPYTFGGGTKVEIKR
Kd [11]: 1.24 nM | koff [11]: 0.00171 s⁻¹ | kon [11]: 1.38e+06 M⁻¹ s⁻¹

B9: h1711-03 (antibody, human IgG4 S228P, kappa, V domains shown)
VH: EVQLVQSGAEVKKPGSSVKVSCKASGYTFSNYWIGWVRQAPGQGLEWIGDIYPGGAYTNYNEKFKDRVTITADKSTSTAYMELSSLRSEDTAVYYCARGDYYDSSGRAMDYWGQGTLVTVSS
VL: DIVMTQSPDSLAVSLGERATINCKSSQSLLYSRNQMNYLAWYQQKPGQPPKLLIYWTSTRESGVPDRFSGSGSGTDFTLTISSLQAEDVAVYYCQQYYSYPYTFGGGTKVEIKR
Kd [11]: 0.556 nM | koff [11]: 0.000723 s⁻¹ | kon [11]: 1.3e+06 M⁻¹ s⁻¹

B10: ch1711 (antibody, V domains shown)
VH: QVQLQQSGTELVRPGTSVKMSCKASGYTFTNYWIGWAKQRPGHGLEWIGDIYPGGAYTNYNEKFKDKATLTADKSSSTAYMQFSSLTSEDSAIYYCTRGDYYDSSGRAMDYWGQGTSVTVSS
VL: DIVMSQSPSSLAVSVGEKVSMSCKSSQSLLYSRNQMNYLAWYQQKPGQSPKLLIYWTSTRESGVPDRFTGSGSGTDFTLTISSVKAEDLAVYYCQQYYSYPYTFGGGTKLEIK
notes: also called chimeric antibody corresponding to m1711
Kd [11]: 0.249 nM | koff [11]: 0.000455 s⁻¹ | kon [11]: 1.83e+06 M⁻¹ s⁻¹

B11: 22G2-H3Q (antibody, human IgG4 S228P, kappa, V domains shown)
VH: QVQLQESGPGLVKPSETLSLTCTVSGGSVSSGIYYWSWIRQPPGKGLEWIGYIYYSGSTNYNPSLKSRVTISVDTSKNQFSLKLSSVTAADTAVYYCARDYYVSGNYYNVDYYFFGVDVWGQGTTVTVSS
VL: EIVLTQSPATLSLSPGERATLSCRASQSVSSYLAWYQQKPGQAPRLLIYDASNRATGIPARFSGSGSGTDFTLTISSLEPEDFAVYYCQQRSNWPPLFTFGPGTKVDIKR
IC50 (read off the curve) [5]: ~5 nM | Kd [7]: 0.166 nM | koff [7]: 0.000404 s⁻¹ | kon [7]: 2.44e+06 M⁻¹ s⁻¹ | IC50 (read off the curve) [9]: ~1 nM | Kd [10]: 0.709 nM | koff [10]: 0.000379 s⁻¹ | kon [10]: 535000 M⁻¹ s⁻¹

B12: h1707-02 (antibody, human IgG4 S228P, kappa, V domains shown)
VH: EVQLVESGGGLVQPGGSLRLSCAASGFTFSDYHMYWVRQAPGKGLEWVAYISKGGISTYYPDTVKGRFTISRDNAKNSLYLQMSRLRAEDTAVYYCARQSSYDFAMDYWGRGTLVTVSS
VL: DIQMTQSPSFLSASVGDRVTITCKASQDVGTSVAWYQQKPGKAPKLLIYWASARHTGVPSRFSGSGSGTDFTLTISSLQPEDFATYYCQQYSSYPLTFGQGTKLEIKR
notes: also called humanized TIGIT antibody h1707-02
EC50 (read off the curve) [2]: ~0.1 nM | binding result [12]: binds | IC50 [3]: 0.482 nM | EC50 [4]: 0.0872 nM | IC50 (read off the curve) [5]: ~5 nM | EC50 (read off the curve) [6]: ~0.3 nM | IC50 (read off the curve) [8]: ~3 nM | IC50 (read off the curve) [9]: ~1 nM | Kd [10]: 0.108 nM | koff [10]: 0.000188 s⁻¹ | kon [10]: 1.74e+06 M⁻¹ s⁻¹

B13: 10A7 hIgG4 (antibody, V domains shown)
VH: EVQLVESGGGLTQPGKSLKLSCEASGFTFSSFTMHWVRQSPGKGLEWVAFIRSGSGIVFYADAVRGRFTISRDNAKNLLFLQMNDLKSEDTAMYYCARRPLGHNTFDSWGQGTLVTVSS
VL: DIVMTQSPSSLAVSPGEKVTMTCKSSQSLYYSGVKENLLAWYQQKPGQSPKLLIYYASIRFTGVPDRFTGSGSGTDYTLTITSVQAEDMGQYFCQQGINNPLTFGDGTKLEIKR
EC50 (read off the curve) [2]: ~0.2 nM | IC50 [3]: 0.678 nM | EC50 [4]: 0.109 nM
